The values that follow come from patent US20230126400A1 (Alector, published 2023).

Assay [1] deals with T1, BSA-conjugated human MS4A4A ECL2 peptide (amino acid residues 159-179) (human, conjugated to BSA (site not stated)).
T1 construct: also called MS4A4A-ECL2 BSA conjugated peptide; BSA-MS4A4A-ELC2 peptide
T1 peptide: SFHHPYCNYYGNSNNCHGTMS
The assay is described as follows: ELISA, supernatant. As for the experimental part: Briefly, 96-well polystyrene plates were coated with 1-10 μg/ml of synthetic free or BSA-conjugated peptides in coating buffer (0.05M carbonate buffer, pH9.6, Millipore Sigma C3041) overnight at 4° C. Coated plates were then blocked with ELISA diluent (PBS+0.5% BSA+0.05% Tween20) for 1-hour, washed 3×300 μL in PBST (PBS+0.05% Tween20, Thermo Cat#28352), and then the antibodies were added to the plate ([…]). After 30 mins incubation (room temperature, with shaking), the plates were washed 3×300 μL in PBST. […] After a final set of washes (3×300 μL in PBST), 50 μL of TMB substrate (BioFx TMBW-1000-01) was added and the reaction was then quenched after 5-10 mins with 50 μL of stop solution (BioFx BSTP-1000-01). The quenched reaction wells were detected for absorbance at 650 nm with a BioTek Synergy Microplate Reader using GENS 2.04 software.

Assay [2] concerns the target T2, human MS4A4A ECL1 peptide (amino acid residues 86-98) (human).
T2 construct: synthetic peptide
T2 peptide: CMASNTYGSNPIS
The assay is described as follows: ELISA, hybridoma supernatant. The essentials:
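Plates coated overnight at 4° C with 1-10 μg/ml free or BSA-conjugated peptide in carbonate buffer pH 9.6, blocked with PBS/0.5% BSA/0.05% Tween20. Antibodies (hybridoma supernatants) bound 30 min at room temperature with shaking; TMB development 5-10 min, stopped, absorbance read at 650 nm.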

Assay [3] concerns the target T3, cynomolgus (cyno) MS4A4A (cynomolgus).
T3 construct: also called cy4A; Cyno 4A
The assay is described as follows: flow cytometry (anti-mouse IgG Fc-APC), hybridoma supernatant on 300.19 cells transfected with cyno MS4A4A. As for the experimental part: (§1) Flow cytometry was performed as follows. Briefly, transiently-transfected cells were labeled with LIVE/DEAD Fixable Aqua Dead Cell Stain Kit (ThermoFisher Scientific Cat#L34957) on ice for 30 minutes. […] 2×10⁵ cells were aliquoted per well in 96-well U-bottom plates and incubated with 50 μl of culture supernatant on ice for 30 minutes. […] Following this secondary incubation, the cells were again washed twice with ice-cold FACS buffer and resuspended in a final volume of 200 μl of FACS buffer. Analysis was performed on a FACS Canto system (BD Biosciences), with gates drawn to exclude dead (Aqua-positive) cells.

The target in assay [4] is T4, human MS4A6A ECL1 peptide (amino acid residues 68-85) (human).
T4 peptide: SASFSPNFTQVTSTLLNS
The assay is described as follows: array SPR.

Assay [5] has as its target T5, human MS4A6A ECL2 peptide (amino acid residues 138-185) (human).
T5 peptide: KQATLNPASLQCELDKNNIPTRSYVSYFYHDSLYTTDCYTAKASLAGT
Briefly: array SPR.

In assay [6] the target is T3, cynomolgus (cyno) MS4A4A. The assay is described as follows: FACS, HEK293, supernatant.
Assay [7] deals with T6, human MS4A4A (human, UniProt Q96JQ5 1-239). Briefly: FACS, HEK293, supernatant.
The target in assay [8] is T6, human MS4A4A. The assay is described as follows: FACS, U937 cells, supernatant. On the procedure:
as §1, with “Positive clones identified in Example 22 above were expanded and then rescreened for specificity against U937, K562, and/or 300.19 cells stably overexpressing human MS4A4A or cyno MS4A4A and parental U937, K562, and/or 300.19 cells. These experiments were” for “Flow cytometry was”, “using supernatants from hybridoma clones which had undergone further expansion after initial selection.” for “as follows.”, “stably transfected” for “transiently-transfected”
(§2) The APC ratio was calculated for each antibody as follows. […] For cell lines overexpressing human MS4A4A (h4A) or cyno MS4A4A (cy4A), the ration was calculated by comparing the binding measured to the binding observed on the corresponding parental cell lines.

In assay [9] the target is T6, human MS4A4A. The assay is described as follows: FACS, K562 cells, supernatant. As for the experimental part:
as §1, with “Positive clones identified in Example 22 above were expanded and then rescreened for specificity against U937, K562, and/or 300.19 cells stably overexpressing human MS4A4A or cyno MS4A4A and parental U937, K562, and/or 300.19 cells. These experiments were” for “Flow cytometry was”, “using supernatants from hybridoma clones which had undergone further expansion after initial selection.” for “as follows.”, “stably transfected” for “transiently-transfected”
as §2

In assay [10] the target is T3, cynomolgus (cyno) MS4A4A. The assay is described as follows: FACS, 300.19 cells, supernatant. On the procedure:
as §1, with “Positive clones identified in Example 22 above were expanded and then rescreened for specificity against U937, K562, and/or 300.19 cells stably overexpressing human MS4A4A or cyno MS4A4A and parental U937, K562, and/or 300.19 cells. These experiments were” for “Flow cytometry was”, “using supernatants from hybridoma clones which had undergone further expansion after initial selection.” for “as follows.”, “stably transfected” for “transiently-transfected”
as §2

The target of assay [11] is T6, human MS4A4A. The assay is described as follows: FACS, 300.19 cells, supernatant. As for the experimental part:
as §1, with “Positive clones identified in Example 22 above were expanded and then rescreened for specificity against U937, K562, and/or 300.19 cells stably overexpressing human MS4A4A or cyno MS4A4A and parental U937, K562, and/or 300.19 cells. These experiments were” for “Flow cytometry was”, “using supernatants from hybridoma clones which had undergone further expansion after initial selection.” for “as follows.”, “stably transfected” for “transiently-transfected”
as §2

Assay [12] concerns the target T7, human MS4A4A ECL2 peptide (amino acid residues 159-179), free (human).
T7 construct: synthetic peptide; also called huMS4A4A-ELC2 free-peptide
T7 peptide: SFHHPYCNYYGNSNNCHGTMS
Briefly: peptide ELISA.

The target in assay [13] is T2, human MS4A4A ECL1 peptide (amino acid …). The assay is described as follows: peptide ELISA. The essentials: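 Free or BSA-conjugated peptides were coated at 2 or 10 […] in 0.05M carbonate buffer, pH 9.6, overnight at 4 °C, then blocked 1 h with PBS+0.5% BSA+0.05% Tween20. Antibodies were bound 30 min at room temperature with shaking. TMB was developed 5-10 min, stopped, and absorbance read at 650 nm.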

In assay [14] the target is T6, human MS4A4A. The assay is described as follows: FACS, K562 cells, supernatant; K562 cells overexpressing h4A. On the procedure: as §1, with “Positive clones identified in Example 22 above were expanded and then rescreened for specificity against U937, K562, and/or 300.19 cells stably overexpressing human MS4A4A or cyno MS4A4A and parental U937, K562, and/or 300.19 cells. These experiments were” for “Flow cytometry was”, “using supernatants from hybridoma clones which had undergone further expansion after initial selection.” for “as follows.”, “stably transfected” for “transiently-transfected”
as §2

The target of assay [15] is T6, human MS4A4A. Briefly: FACS, U937 cells, supernatant; U937 cells overexpressing h4A. As for the experimental part: as §1, with “Positive clones identified in Example 22 above were expanded and then rescreened for specificity against U937, K562, and/or 300.19 cells stably overexpressing human MS4A4A or cyno MS4A4A and parental U937, K562, and/or 300.19 cells. These experiments were” for “Flow cytometry was”, “using supernatants from hybridoma clones which had undergone further expansion after initial selection.” for “as follows.”, “stably transfected” for “transiently-transfected”
as §2

Assay [16] has as its target T7, human MS4A4A ECL2 peptide (amino acid …). Briefly: peptide ELISA, supernatant.

Where only a bound is given, the exact number is not on record here.

B1: anti-MS4A4A antibody 4A-14 (antibody, V domains shown)
VH: EVKLEESGGGLVQPGGSMKLSCAASGFTFSDAWLDWVRQSPEKGLEWVAEIRSKANDHATYYAESVKGRFTISRDDSKSRFYLQMNSLRAEDTGIYYCSVDYYGFFWGQGTLVTVSA
VL: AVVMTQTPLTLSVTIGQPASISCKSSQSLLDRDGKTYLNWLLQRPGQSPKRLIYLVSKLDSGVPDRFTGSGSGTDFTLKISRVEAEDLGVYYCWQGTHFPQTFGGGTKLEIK
notes: murine hybridoma antibody
As for B1, the binding result is reported as “binds” in [1]; “no binding” in assay [2]; “no binding” with cynomolgus (cyno) MS4A4A [3]; “no binding (tested: 2000 nM)” in [4]; “no binding (tested: 2000 nM)” in assay [5]. Also, in the assay with cynomolgus (cyno) MS4A4A [6], the “Cyno 4A:parental cell ratio” value amounted to 0.647 ratio. Moreover, the “Human 4A:parental cell ratio” value with human MS4A4A [7] was 4.2 ratio.

B2: anti-MS4A4A antibody 4A-214 (antibody, V domains shown)
VH: EVKLEESGGGLVQPGRSMKLSCVASGFTFSNYWMNWVRQSPEKGLEWVAEIRLKSNNYATHYAESVKGRFTISRDDSKSSVYLQMNNLRAEDTGIYYCSSMIIVDYWGQGTTVTVSS
VL: DIVLTQSPASLTVSLGQRATISCRASQSVSSSTYSYLHWYQQRPGQPPKLLIKYASNLESGVPARFSGSGSGTVFTLNIHPVEEEDTATYYCQHSWEIPLTFGAGTKLEMK
notes: murine hybridoma antibody
For the molecule B2, the “fold increase in MFI” value with human MS4A4A [8], with human MS4A4A [9], with cynomolgus (cyno) MS4A4A [10] and with human MS4A4A [11] was over 2 fold throughout. In addition, the binding result is “binds” in assay [12] and “no binding” in [13].

B3: anti-MS4A4A antibody 4A-204 (antibody, V domains shown)
VH: DVKLVESGGGLAKLGGSLKLSCAASGFTFSSFYMSWVRQTPEKRLELVAAINSNGGSTYYPDSVKGRFTISRDNVKNTLYLQMSSLKSEDTAMYYCARHLYYGLYYAMDYWGQGTSVTVSS
VL: ENVLTQSPAIMSASPGEKVTMTCSASSSVSFMYWYQEKSSTSPKLWIYDTSKLASGVPGRFSGSGSGNSYSLTISSMGAEDVATYYCFQGSGFPLTFGSGTKLEIK
notes: murine hybridoma antibody
Turning to B3, the “fold increase in MFI” value with human MS4A4A [14] and with human MS4A4A [15] was over 2 fold each time. In addition, the binding result in [13] and in assay [16] was “no binding” each time.

B4: anti-MS4A4A antibody 4A-220 (antibody, V domains shown)
VH: EVQLQQSGPDLVKPGASVKISCKASGYSFNGYFMNWVMQSHGESLEWIGRINPYNGDTLYNQKFKGKATLTVDKSSSTGHMELRSLASEDSAVYYCARVKGYDYDGAMDYWGQGTSVTVSS
VL: DIVMTQSPDSLAVSLGERATINCRSSQSLLQSGNQKSSLAWYQQKPGQPPKLLIFWARTRQSGVPDRFSGSGSGTDFTLTISSVQAEDVAVYYCQQYSDTPFTFGQGTKLEIK
notes: murine hybridoma antibody
B4: the “fold increase in MFI” value with human MS4A4A [8], with human MS4A4A [9] and in the assay with human MS4A4A [11] was over 2 fold each time. Also, the binding result in [13] and in assay [16] was “no binding” each time.
